# Laboratory results from the supplement of paper PMC6757056.
# ± gives the standard deviation of the averaged measurements.
# B1: library; a variant is named by its letters at N, in order (parent)
# chain: GCUGUCACCGGUGCUUGGUACGUUAUAUUCAGCCGGUCUGAUGAGUCUNNNNNNAGACGAAACAGC
# Variants of: B1
# Test: normalized RNA/DNA level without ligand (relative to sTRSVctl = 100) (log10 (% of sTRSVctl)); HEK293T overexpressing SLC46A1; higher = less ribozyme self-cleavage, higher mRNA level
# Details: without (6R,S)-folinic acid; ligand present: no
# Summary of the method: (§1)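 Only sequences with at least 100 DNA reads were analyzed, from HEK293T cells transfected with 4 µg per 6-well well of ribozyme switch library plasmids 72 h before RNA extraction with EDTA. Any ligand was added 1 h before transfection. RNA level was defined as RNA over DNA reads, normalized to a spiked-in non-cleaving sequence or to the top sequences, then scaled and log-transformed. The top set was 25 sequences, and the scaling was ×100 followed by log10.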
row,Variant,normalized RNA/DNA level without ligand (log10)
1,GUUGCA,2 ± 0.011
2,GUUGCC,2.0274 ± 0.0015
3,GUUGAU,1.97 ± 0.021
4,AUUUCG,1.961 ± 0.016
5,AUUUCU,2.03 ± 0.025
6,AUUUCA,2.036 ± 0.012
7,AUUUCC,2.048 ± 0.0099
8,CUGUUU,2.022 ± 0.0036
9,CUGUUG,2.04 ± 0.035
10,CUGUUC,2.049 ± 0.016
11,CUGUUA,1.994 ± 0.0099
12,AUUAAG,1.931 ± 0.011
13,AUUAAU,1.9586 ± 0.0017
14,AUUAAC,2.011 ± 0.0026
15,GUGUCU,1.982 ± 0.0041
16,GUGUCG,2.006 ± 0.0093
17,CUUUGG,2.023 ± 0.0097
18,CUUUGA,2.024 ± 0.004
19,CUUUGU,1.986 ± 0.008
20,CUUUGC,2.047 ± 0.017
21,UUUCCA,2.009 ± 0.0042
22,UUUCCU,2.0566 ± 0.0006
23,UUUCCC,2.043 ± 0.0052
24,AUGUUG,1.889 ± 0.01
25,AUGUUC,2.0332 ± 0.0018
26,AUGUUU,1.976 ± 0.015
27,AUGUUA,1.938 ± 1.9e-05
28,CUUUUG,2.0401 ± 0.001
29,CUUUUA,1.988 ± 0.012

# Variants of: B1
# Test: normalized RNA/DNA level with ligand (relative to sTRSVctl = 100) (log10 (% of sTRSVctl)); HEK293T overexpressing SLC46A1; ligand concentration (+) RNA-Seq: 6 mM; higher = less ribozyme self-cleavage, higher mRNA level
# Details: with (6R,S)-folinic acid; ligand present: yes
# Summary of the method: as §1
row,Variant,normalized RNA/DNA level with ligand (log10)
1,GUUGCA,2.01 ± 0.038
2,GUUGCC,1.998 ± 0.018
3,GUUGAU,2.003 ± 0.019
4,AUUUCG,2 ± 0.026
5,AUUUCU,2.034 ± 0.019
6,AUUUCA,2.01 ± 0.026
7,AUUUCC,2.037 ± 0.01
8,CUGUUU,2.06 ± 0.041
9,CUGUUG,2.03 ± 0.027
10,CUGUUC,2.03 ± 0.024
11,CUGUUA,2.04 ± 0.03
12,AUUAAG,2.01 ± 0.026
13,AUUAAU,1.98 ± 0.033
14,AUUAAC,2.03 ± 0.033
15,GUGUCU,1.98 ± 0.045
16,GUGUCG,2.06 ± 0.037
17,CUUUGG,1.994 ± 0.013
18,CUUUGA,2.05 ± 0.036
19,CUUUGU,1.99 ± 0.022
20,CUUUGC,2.027 ± 0.016
21,UUUCCA,2.01 ± 0.027
22,UUUCCU,2.058 ± 0.018
23,UUUCCC,2.02 ± 0.075
24,AUGUUG,2.017 ± 0.019
25,AUGUUC,2.01 ± 0.021
26,AUGUUU,2.004 ± 0.011
27,AUGUUA,1.98 ± 0.057
28,CUUUUG,2.04 ± 0.029
29,CUUUUA,2 ± 0.052
